# In US5888732:
# Experiments:
# [1] = molecular target: Lambda integrase (Int) + excisionase (Xis) + IHF (UniProt P03700+P03699+P0A6X7+P0A6Y1); assay: cell_activity
# [2] = molecular target: Cre recombinase (bacteriophage P1) (UniProt P06956); assay: cell_activity; conditions: 140 without Cre
# [3] = tested on: Lambda integrase (Int) + IHF; assay: cleavage_in_vitro; conditions: agarose gel; 50 mM Tris pH 7.8, 70 mM KCl, 5 mM spermidine, 25 C 45 min
# UniProt P03700, sequence (P03700 whole entry, chain 1 of 4): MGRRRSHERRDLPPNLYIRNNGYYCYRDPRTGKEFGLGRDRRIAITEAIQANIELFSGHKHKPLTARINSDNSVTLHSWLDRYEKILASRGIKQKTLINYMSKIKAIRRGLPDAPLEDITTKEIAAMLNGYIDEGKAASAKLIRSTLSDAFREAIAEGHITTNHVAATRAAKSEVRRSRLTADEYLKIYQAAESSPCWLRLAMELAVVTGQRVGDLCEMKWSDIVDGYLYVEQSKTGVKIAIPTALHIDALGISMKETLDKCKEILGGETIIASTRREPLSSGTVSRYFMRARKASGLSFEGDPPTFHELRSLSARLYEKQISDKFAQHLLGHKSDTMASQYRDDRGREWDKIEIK
# UniProt P03700, sequence (P03699 whole entry, chain 2 of 4): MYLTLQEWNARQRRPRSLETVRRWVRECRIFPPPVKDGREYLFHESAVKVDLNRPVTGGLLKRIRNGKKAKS
# UniProt P03700, sequence (P0A6X7 2-99, chain 3 of 4): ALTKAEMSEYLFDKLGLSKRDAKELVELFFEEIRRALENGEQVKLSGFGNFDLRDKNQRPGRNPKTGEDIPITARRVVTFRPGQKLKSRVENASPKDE
# UniProt P03700, sequence (P0A6Y1 whole entry, chain 4 of 4): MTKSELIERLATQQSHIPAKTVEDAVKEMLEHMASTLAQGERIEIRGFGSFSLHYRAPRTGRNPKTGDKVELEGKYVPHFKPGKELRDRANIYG
# UniProt P06956, sequence (P06956 whole entry): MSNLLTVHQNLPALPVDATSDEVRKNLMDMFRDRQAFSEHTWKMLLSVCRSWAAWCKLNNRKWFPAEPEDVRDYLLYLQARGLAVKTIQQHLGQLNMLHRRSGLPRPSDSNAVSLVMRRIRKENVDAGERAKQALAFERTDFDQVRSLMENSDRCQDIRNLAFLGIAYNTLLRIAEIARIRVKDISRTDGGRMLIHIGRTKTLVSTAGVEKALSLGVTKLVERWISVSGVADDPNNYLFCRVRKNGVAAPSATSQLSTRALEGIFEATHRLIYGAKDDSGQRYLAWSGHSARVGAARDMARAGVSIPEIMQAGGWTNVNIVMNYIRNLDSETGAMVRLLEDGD
substance,measurement,setting,value
attR2 (pEZC1309) ; attLwt (pEZC1313),activity (kanamycin resistant colonies),"[1]; with Cre/loxP, background 9",0
loxP 511,activity (kanamycin resistant colonies),"[2]; same reaction as loxP, both sites required for product",760
attR1 (pEZC1305) ; attLwt (pEZC1313),activity (kanamycin resistant colonies),"[1]; with Cre/loxP, background 1",4
attRwt (lacking P1 and H1; pEZC1301) ; attLwt (pEZC1313),activity (kanamycin resistant colonies),"[1]; in vitro recombination with Cre on loxP as second site, background 1",147
attRwt (lacking P1 and H1; pEZC1301) ; attL1 (pEZC1317),activity (kanamycin resistant colonies),"[1]; with Cre/loxP, background 1",47
attRwt (lacking P1 and H1; pEZC1301) ; attL2 (pEZC1321),activity (kanamycin resistant colonies),"[1]; with Cre/loxP, background 1",0
attB wild type (pEZC705) ; attP wild type (pEZC726),activity (% of total DNA converted to cointegrate),[3],5
loxP wild type,activity (kanamycin resistant colonies),"[2]; pEZC602 x pEZC629 via loxP and loxP 511, 37 C, 33 mM NaCl",760
